In experiment [1] the target is surface HIV-1 Env BG505 SOSIP (HIV-1 BG505.DS-SOSIP trimeric antigen), membrane-bound on HEK293 cells (HIV-1). Description: droplet co-expression, FACS sort for anti-Kappa-FITC, NGS of VH genes.
For experiment [2] the target is unchanged. Nature of the experiment: FACS, anti-Kappa-FITC stain of HEK293 cells co-expressing surface Env and secreted IgG1 after 24 h in droplets. For orientation: A flow cytometer gives signals particle by particle.

VRC01 (antibody): the Enrichment Ratio (FITC+ prevalence / FITC- prevalence) in experiment [1] was found to be 2. In experiment [2], this substance came in with a fold anti-Kappa binding against cells expressing 1-20 of more than 5 fold.

The values are drawn from patent US20260126450A1.
